Bridges are numbered along the chain shown (N, C = ends).
What follows are binders tested against recombinant human ACE-2 (human, UniProt Q9BYF1 18-740, limits assumed) (assay: cell-based or functional assay).
Chain of recombinant human ACE-2 (Q9BYF1 18-740 limits assumed): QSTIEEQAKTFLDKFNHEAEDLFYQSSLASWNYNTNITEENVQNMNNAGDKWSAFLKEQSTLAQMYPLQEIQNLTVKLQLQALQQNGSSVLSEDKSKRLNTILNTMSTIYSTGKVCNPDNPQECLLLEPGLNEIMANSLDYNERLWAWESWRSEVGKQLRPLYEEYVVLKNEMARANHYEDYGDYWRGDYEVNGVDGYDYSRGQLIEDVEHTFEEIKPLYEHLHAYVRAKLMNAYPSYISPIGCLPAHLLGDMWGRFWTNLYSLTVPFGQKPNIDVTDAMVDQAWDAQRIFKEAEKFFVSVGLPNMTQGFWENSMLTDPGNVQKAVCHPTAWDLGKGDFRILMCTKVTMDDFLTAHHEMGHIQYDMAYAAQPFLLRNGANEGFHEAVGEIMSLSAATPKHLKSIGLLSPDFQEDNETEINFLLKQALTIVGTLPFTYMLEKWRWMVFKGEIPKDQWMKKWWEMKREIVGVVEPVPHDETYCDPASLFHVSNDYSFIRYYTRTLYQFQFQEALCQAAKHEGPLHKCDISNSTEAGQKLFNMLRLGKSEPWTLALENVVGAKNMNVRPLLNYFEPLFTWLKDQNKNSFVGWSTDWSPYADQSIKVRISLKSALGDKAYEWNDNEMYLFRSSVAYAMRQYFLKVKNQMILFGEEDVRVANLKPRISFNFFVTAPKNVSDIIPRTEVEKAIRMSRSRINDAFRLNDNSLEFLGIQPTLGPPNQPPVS

Which “IC50 µM (ACE-2 cleavage of M-2195, fluorometric)” value (from here on “IC50 µM”) does the source give for Ac-GSRIGCRDSRCNWWAPGEGGG-NH2 (disulfide 6-11 (inferred); also: oxidized) [DX-524] here?
Its value is 0.6 µM.

With Ac-AGWEVCHWAPMMCKHGGTEGGG-NH2 (disulfide 6-13 (inferred); also: oxidized) [DX-529] as the binder, how does the “IC50 µM” value read?
Its value is 0.4 µM.

With Ac-GDGFTCSPIRMFPWFRCDLGDPEGGG-NH2 (disulfide 6-17 (inferred)) [DX-601] as the binder, how does the “IC50 µM” value read?
Its value is 0.068 µM.

With Ac-GDFSPCKALRHSPWWVCPSGDPEGGG-NH2 (disulfide 6-17 (inferred)) [DX-602] as the binder, how does the “IC50 µM” value read?
The value was 0.12 µM.

With Ac-GDRLHCKPQRQSPWMKCQHLDPEGGG-NH2 (disulfide 6-17 (inferred)) [DX-512] as the binder, how does the “IC50 µM” value read?
The value was 0.06 µM.

With Ac-GSRGFCRDSSCSFPAPGEGGG-NH2 (disulfide 6-11 (inferred); also: oxidized) [DX-525] as the binder, how does the “IC50 µM” value read?
The value was 1 µM.

For Ac-AGSDWCGTWNNPCFHQGTEGGG-NH2 (disulfide 6-13 (inferred); also: oxidized) [DX-531], which “IC50 µM” value is on record?
The value was 0.5 µM.

For Ac-GDRYLCLPQRDKPWKFCNWFDPEGGG-NH2 (disulfide 6-17 (inferred); also: oxidized) [DX-599], which “IC50 µM” value is on record?
Its value is 0.14 µM.

Ac-AGQKECKFGYPHCLPWGTEGGG-NH2 (disulfide 6-13 (inferred); also: oxidized) [DX-530] was tested. Which “IC50 µM” value did it give?
The value was 30 µM.

Which “IC50 µM” value does the source give for Ac-GDLHACRPVRGDPWWACTLGDPEGGG-NH2 (disulfide 6-17 (inferred); also: oxidized) [DX-513] here?
Its value is 0.09 µM.

From US20030091557A1 (Human Genome Sciences, published 2003)
